# Results reported in patent EP3470429A1 (Numab Innovation AG, dated 2019).
# B1: PRO1058 (other)
# chain: DIQMTQSPSSLSASVGDRVTITCQASQSINDYLAWYQQKPGKAPKLLIYKASTLASGVPSRFSGSGSGTDFTLTISSLQPEDFATYYCQQGYIITDIDNVFGTGTKVTVLGGGGGSQVQLQESGPGLVKPSETLSLTCKVSGFSFNNDYDMCWIRQPPGKGLEWIGCIDTGDGSTYYASWAKGRVTISVDSSKNQFSLKLSSVTAADTAVYYCAREAASSSGYGMGYFDLWGQGTLVTVSSGGGGSGGGGSGGGGSGGGGSIQMTQSPSSLSASVGDRVTITCQSSQSVYDNNWLAWYQQKPGKAPKLLIYRASNLASGVPSRFSGSGSGTDFTLTISSLQPEDFATYYCQGTYLSSNWYWAFGTGTKVTVLGGGGGSQVQLQESGPGLVKPSETLSLTCKVSGFSFSSGYDMCWIRQPPGKGLEWIGCVVAGSVDITYYASWAKGRVTISVDSSKNQFSLKLSSVTAADTAVYYCARKDAYSDAFNLWGQGTLVTVSSGGGGSGGGGSVVMTQSPSSLSASVGDRVTITCQASQIISSRSAWYQQKPGQPPKLLIYQASKLASGVPSRFSGSGSGTDFTLTISSLQPEDFATYYCQCTYIDSNFGAFGGGTKLTVLGGGGGSGGGGSGGGGSGGGGSEVQLVESGGGLVQPGGSLRLSCAASGFSFSSSYWICWVRQAPGKGLEWVGCVFTGDGTTYYASWAKGRFTISRDNSKNTVYLQMNSLRAEDTATYFCARPVSVYYYGMDLWGQGTLVTVSS
# notes: also called 38_27_C05 sc01 scDb-i/33-03-G02 sc01 scDb-o/mxr HSA (23-13-A01-sc03,sk17sh4)
# B2: PRO1123 (bispecific antibody)
# chain: DIQMTQSPSSLSASVGDRVTITCQASQSINDYLAWYQQKPGKAPKLLIYKASTLASGVPSRFSGSGSGTDFTLTISSLQPEDFATYYCQQGYIITDIDNVFGTGTKVTVLGGGGGSQVQLQESGPGLVKPSETLSLTCKVSGFSFSNSYWICWVRQPPGKGLEWIGCTFVGSSDSTYYANWAKGRVTISVDSSKNQVSLKLSSVTAADTAVYFCARHPSDAVYGYANNLWGQGTLVTVSSGGGGSGGGGSGGGGSGGGGSIQMTQSPSSLSASVGDRVTITCQASQSINNVLAWYQQKPGKPPKLLIYRASTLASGVPSRFSGSGSGTDFTLTISSLQPEDFATYYCQSSYGNYGDFGTGTKVTVLGGGGGSQVQLQESGPGLVKPSETLSLTCKVSGFSFSSGYDMCWIRQPPGKGLEWIGCVVAGSVDITYYASWAKGRVTISVDSSKNQFSLKLSSVTAADTAVYYCARKDAYSDAFNLWGQGTLVTVSS
# notes: also called 38-02-A04 sc05 IF scDb-i/33 03 G02 sc01 scDb-o
# B3: PRO966 (other)
# chain: DIQMTQSPSSLSASVGDRVTITCQASQSINDYLAWYQQKPGKAPKLLIYKASTLASGVPSRFSGSGSGTDFTLTISSLQPEDFATYYCQQGYIITDIDNVFGTGTKVTVLGGGGGSQVQLQESGPGLVKPSETLSLTCKVSGFSFNNDYDMCWIRQPPGKGLEWIGCIDTGDGSTYYASWAKGRVTISVDSSKNQFSLKLSSVTAADTAVYYCAREAASSSGYGMGYFDLWGQGTLVTVSSGGGGSGGGGSGGGGSGGGGSIQMTQSPSSLSASVGDRVTITCQSSQSVYDNNWLAWYQQKPGKAPKLLIYRASNLASGVPSRFSGSGSGTDFTLTISSLQPEDFATYYCQGTYLSSNWYWAFGTGTKVTVLGGGGGSQVQLQESGPGLVKPSETLSLTCKVSGFSFSSGYDMCWIRQPPGKGLEWIGCVVAGSVDITYYASWAKGRVTISVDSSKNQFSLKLSSVTAADTAVYYCARKDAYSDAFNLWGQGTLVTVSSGGGGSGGGGSIQMTQSPSSLSASVGDRVTITCQSSESVYSNNQLSWYQQKPGQPPKLLIYDASDLASGVPSRFSGSGSGTDFTLTISSLQPEDFATYYCAGGFSSSSDTAFGGGTKLTVLGGGGGSGGGGSGGGGSGGGGSEVQLVESGGGLVQPGGSLRLSCAASGFSLSSNAMGWVRQAPGKGLEYIGIISVGGFTYYASWAKGRFTISRDNSKNTVYLQMNSLRAEDTATYFCARDRHGGDSSGAFYLWGQGTLVTVSS
# notes: also called PRO1052; 38_27_C05 sc01 scDb-i/33-03-G02 sc01 scDb-o/19-01-H04-sc03 scFv
# B4: PRO963 (other)
# chain: DIQMTQSPSSLSASVGDRVTITCQASQSINDYLAWYQQKPGKAPKLLIYKASTLASGVPSRFSGSGSGTDFTLTISSLQPEDFATYYCQQGYIITDIDNVFGTGTKVTVLGGGGGSQVQLQESGPGLVKPSETLSLTCKVSGFSFSNSYWICWIRQPPGKGLEWIGCTFVGSSDSTYYANWAKGRVTISVDSSKNQFSLKLSSVTAADTAVYYCARHPSDAVYGYANNLWGQGTLVTVSSGGGGSGGGGSGGGGSGGGGSIQMTQSPSSLSASVGDRVTITCQASQSINNVLAWYQQKPGKAPKLLIYRASTLASGVPSRFSGSGSGTDFTLTISSLQPEDFATYYCQSSYGNYGDFGTGTKVTVLGGGGGSQVQLQESGPGLVKPSETLSLTCKVSGFSFSSGYDMCWIRQPPGKGLEWIGCVVAGSVDITYYASWAKGRVTISVDSSKNQFSLKLSSVTAADTAVYYCARKDAYSDAFNLWGQGTLVTVSSGGGGSGGGGSIQMTQSPSSLSASVGDRVTITCQSSESVYSNNQLSWYQQKPGQPPKLLIYDASDLASGVPSRFSGSGSGTDFTLTISSLQPEDFATYYCAGGFSSSSDTAFGGGTKLTVLGGGGGSGGGGSGGGGSGGGGSEVQLVESGGGLVQPGGSLRLSCAASGFSLSSNAMGWVRQAPGKGLEYIGIISVGGFTYYASWAKGRFTISRDNSKNTVYLQMNSLRAEDTATYFCARDRHGGDSSGAFYLWGQGTLVTVSS
# notes: also called PRO1051; 38_02_A04 sc01 scDb-i/33-03-G02 sc01 scDb-o/19-01-H04-sc03 scFv
# B5: PRO830 (scFv)
# scFv: DIQMTQSPSSLSASVGDRVTITCQASQSINDYLAWYQQKPGKAPKLLIYKASTLASGVPSRFSGSGSGTDFTLTISSLQPEDFATYYCQQGYIITDIDNVFGTGTKVTVLGGGGGSGGGGSGGGGSGGGGSQVQLQESGPGLVKPSETLSLTCKVSGFSFSSGYDMCWIRQPPGKGLEWIGCVVAGSVDITYYASWAKGRVTISVDSSKNQFSLKLSSVTAADTAVYYCARKDAYSDAFNLWGQGTLVTVSS
# B6: PRO1013 (scFv)
# scFv: DIQMTQSPSSLSASVGDRVTITCQASQSIGTYLAWYQQKPGKAPKLLIYRAFILASGVPSRFSGSGSGTDFTLTISSLQPEDFATYYCQSNFYSDSTTIGPNAFGTGTKVTVLGGGGGSGGGGSGGGGSGGGGSQVQLVQSGAEVKKPGASVKVSCKASGFSFNSDYWIYWVRQAPGQGLEWMGSIYGGSSGNTQYASWAQGRVTMTRDTSISTAYMELSSLRSEDTAVYYCARGYVDYGGATDLWGQGTLVTVSS
# B7: PRO1059 (bispecific antibody, human IgG1, kappa, L234A L235A)
# light: DIQMTQSPSSLSASVGDRVTITCQASQSINDYLAWYQQKPGKAPKLLIYKASTLASGVPSRFSGSGSGTDFTLTISSLQPEDFATYYCQQGYIITDIDNVFGTGTKVTVLGTVAAPSVFIFPPSDEQLKSGTASVVCLLNNFYPREAKVQWKVDNALQSGNSQESVTEQDSKDSTYSLSSTLTLSKADYEKHKVYACEVTHQGLSSPVTKSFNRGECGGGGSGGGGSIQMTQSPSSLSASVGDRVTITCQASQSINNVLAWYQQKPGKAPKLLIYRASTLASGVPSRFSGSGSGTDFTLTISSLQPEDFATYYCQSSYGNYGDFGTGTKVTVLGGGGGSGGGGSGGGGSGGGGSQVQLQESGPGLVKPSETLSLTCKVSGFSFSNSYWICWIRQPPGKGLEWIGCTFVGSSDSTYYANWAKGRVTISVDSSKNQFSLKLSSVTAADTAVYYCARHPSDAVYGYANNLWGQGTLVTVSS
# heavy: QVQLQESGPGLVKPSETLSLTCKVSGFSFSSGYDMCWIRQPPGKGLEWIGCVVAGSVDITYYASWAKGRVTISVDSSKNQFSLKLSSVTAADTAVYYCARKDAYSDAFNLWGQGTLVTVSSASTKGPSVFPLAPSSKSTSGGTAALGCLVKDYFPEPVTVSWNSGALTSGVHTFPAVLQSSGLYSLSSVVTVPSSSLGTQTYICNVNHKPSNTKVDKRVEPKSCDKTHTCPPCPAPEAAGGPSVFLFPPKPKDTLMISRTPEVTCVVVDVSHEDPEVKFNWYVDGVEVHNAKTKPREEQYNSTYRVVSVLTVLHQDWLNGKEYKCKVSNKALGAPIEKTISKAKGQPREPQVYTLPPSREEMTKNQVSLTCLVKGFYPSDIAVEWESNGQPENNYKTTPPVLDSDGSFFLYSKLTVDKSRWQQGNVFSCSVMHEALHNHYTQKSLSLSPGK
# B8: PRO1060 (bispecific antibody, human IgG1, kappa, L234A L235A)
# light: DIQMTQSPSSLSASVGDRVTITCQASQSINDYLAWYQQKPGKAPKLLIYKASTLASGVPSRFSGSGSGTDFTLTISSLQPEDFATYYCQQGYIITDIDNVFGTGTKVTVLGTVAAPSVFIFPPSDEQLKSGTASVVCLLNNFYPREAKVQWKVDNALQSGNSQESVTEQDSKDSTYSLSSTLTLSKADYEKHKVYACEVTHQGLSSPVTKSFNRGEC
# heavy: QVQLQESGPGLVKPSETLSLTCKVSGFSFSSGYDMCWIRQPPGKGLEWIGCVVAGSVDITYYASWAKGRVTISVDSSKNQFSLKLSSVTAADTAVYYCARKDAYSDAFNLWGQGTLVTVSSASTKGPSVFPLAPSSKSTSGGTAALGCLVKDYFPEPVTVSWNSGALTSGVHTFPAVLQSSGLYSLSSVVTVPSSSLGTQTYICNVNHKPSNTKVDKRVEPKSCDKTHTCPPCPAPEAAGGPSVFLFPPKPKDTLMISRTPEVTCVVVDVSHEDPEVKFNWYVDGVEVHNAKTKPREEQYNSTYRVVSVLTVLHQDWLNGKEYKCKVSNKALGAPIEKTISKAKGQPREPQVYTLPPSREEMTKNQVSLTCLVKGFYPSDIAVEWESNGQPENNYKTTPPVLDSDGSFFLYSKLTVDKSRWQQGNVFSCSVMHEALHNHYTQKSLSLSPGKGGGGSGGGGSIQMTQSPSSLSASVGDRVTITCQASQSINNVLAWYQQKPGKAPKLLIYRASTLASGVPSRFSGSGSGTDFTLTISSLQPEDFATYYCQSSYGNYGDFGTGTKVTVLGGGGGSGGGGSGGGGSGGGGSQVQLQESGPGLVKPSETLSLTCKVSGFSFSNSYWICWIRQPPGKGLEWIGCTFVGSSDSTYYANWAKGRVTISVDSSKNQFSLKLSSVTAADTAVYYCARHPSDAVYGYANNLWGQGTLVTVSS
# B9: PRO951 (bispecific antibody)
# chain: DIQMTQSPSSLSASVGDRVTITCQASQSINDYLAWYQQKPGKAPKLLIYKASTLASGVPSRFSGSGSGTDFTLTISSLQPEDFATYYCQQGYIITDIDNVFGTGTKVTVLGGGGGSEVQLVESGGGLVQPGGSLRLSCAASGFSFNNDYDMCWVRQAPGKGLEWIGCIDTGDGSTYYASWAKGRFTISRDNSKNTVYLQMNSLRAEDTAVYYCAREAASSSGYGMGYFDLWGQGTLVTVSSGGGGSGGGGSGGGGSGGGGSIQMTQSPSSLSASVGDRVTITCQSSQSVYDNNWLAWYQQKPGKAPKLLIYRASNLASGVPSRFSGSGSGTDFTLTISSLQPEDFATYYCQGTYLSSNWYWAFGTGTKVTVLGGGGGSQVQLQESGPGLVKPSETLSLTCKVSGFSFSSGYDMCWIRQPPGKGLEWIGCVVAGSVDITYYASWAKGRVTISVDSSKNQFSLKLSSVTAADTAVYYCARKDAYSDAFNLWGQGTLVTVSS
# Molecular target: T1, human PD-L1-Fc chimeric protein (human, UniProt Q9NZQ7 19-238)
# T1 construct: not shown: Fc part, captured by an anti-human IgG Fc antibody
# Test: SPR Biacore T200, PD-L1-Fc captured by anti-human Fc
row,binding result,Binder
1,binds,B1
2,binds,B2
3,binds,B3

# Molecular target: T2, human serum albumin (human, UniProt P02768 25-609)
# T2 construct: also called HSA; human SA
# Test: SPR Biacore T200, SA amine-coupled to CM5 chip, pH 5.5
row,binding result,Binder
1,binds,B4
2,binds,B1
3,binds,B3

# Molecular target: human PD-L1 expressed on cells (human, UniProt Q9NZQ7 19-290)
# Test: cell-based or functional assay
"IC50 (ng/ml), NF-AT Potency assay [ng/mL]","IC50 (ng/ml), NF-AT Potency assay, with HSA [ng/mL]",Binder
42.9,,B5
,275,B4
21.3,,B6
93.8,,B7
133,,B8
88.5,,B9
